Laboratory results as given in the Human Domainome abundance scans (Beltran et al. 2025).
± gives the uncertainty stated by the source.

B1: LIM and senescent cell antigen-like-containing domain protein 2, residues 13 to 71; numbered along this chain, Q7Z4I7 (parent)
chain: AVCQRCQARFSPAERIVNSNGELYHEHCFVCAQCFRPFPEGLFYEFEGRKYCEHDFQML
B2: Chromodomain-helicase-DNA-binding protein 4, residues 623 to 675; numbered along this chain, Q14839 (parent)
chain: MIHRILNHSVDKKGHVHYLIKWRDLPYDQASWESEDVEIQDYDLFKQSYWNHR

Variants of: B1
Experiment: abundance fitness (aPCA) (normalised: wild type 0, dead -1); higher = more abundant; growth selection in yeast, the domain comes from the species named
Conditions: Homo sapiens

Abundance fitness of substitutions, site by site:
F46: R -0.271 ± 0.06; V -0.05 ± 0.067; W 0.014 ± 0.085
E47: A -0.129 ± 0.06; C -0.247 ± 0.1; D -0.083 ± 0.09; F -0.585 ± 0.15; G -0.062 ± 0.048; H 0.022 ± 0.11; K -0.274 ± 0.07; L -0.243 ± 0.062; M -0.222 ± 0.081; N -0.335 ± 0.1; P -0.773 ± 0.1; Q -0.204 ± 0.078; R -0.154 ± 0.044; S -0.364 ± 0.07; T -0.434 ± 0.073; V -0.138 ± 0.057; W -0.49 ± 0.072; Y -0.453 ± 0.13
G48: A -0.201 ± 0.055; C -0.224 ± 0.079; D -0.03 ± 0.097; E -0.062 ± 0.059; H -0.411 ± 0.13; I -0.789 ± 0.19; K -0.067 ± 0.062; M -0.398 ± 0.066; N 0.114 ± 0.098; P -0.686 ± 0.084; Q -0.238 ± 0.062; R -0.083 ± 0.041; S -0.021 ± 0.044; T -0.15 ± 0.061; V -0.775 ± 0.071; W -0.838 ± 0.087; Y -0.451 ± 0.1
R49: A -0.057 ± 0.099; C -0.011 ± 0.13; D -0.413 ± 0.26; E -0.205 ± 0.12; F -0.245 ± 0.19; G -0.257 ± 0.063; I -0.101 ± 0.12; K 0.029 ± 0.11; L -0.169 ± 0.068; M -0.102 ± 0.095; N -0.482 ± 0.34; T -0.066 ± 0.087; V -0.123 ± 0.077; Y -0.328 ± 0.18
K50: A -0.2 ± 0.088; D -0.473 ± 0.23; E -0.263 ± 0.1; F -0.3 ± 0.15; G -0.212 ± 0.081; H -0.225 ± 0.16; L 0.005 ± 0.055; M 0.168 ± 0.1; N 0.185 ± 0.17; P -0.177 ± 0.089; Q -0.032 ± 0.098; R -0.05 ± 0.058; S -0.216 ± 0.076; T -0.047 ± 0.08; V -0.091 ± 0.075; W -0.191 ± 0.085; Y -0.104 ± 0.11
Y51: A -0.754 ± 0.11; C -0.298 ± 0.15; D -0.452 ± 0.14; E -0.604 ± 0.13; F -0.053 ± 0.096; G -0.922 ± 0.14; H -0.743 ± 0.18; I -0.283 ± 0.098; K -0.276 ± 0.14; L 0.186 ± 0.06; M 0.088 ± 0.081; N -0.877 ± 0.17; P -0.729 ± 0.14; Q -0.785 ± 0.24; T -0.702 ± 0.14; V 0.014 ± 0.062; W -0.426 ± 0.14
C52: A -1 ± 0.12; D -0.622 ± 0.16; E -0.719 ± 0.11; F -0.882 ± 0.38; G -0.731 ± 0.084; H -0.486 ± 0.28; I -0.918 ± 0.24; L -0.817 ± 0.09; M -0.673 ± 0.13; N -0.269 ± 0.27; P -0.949 ± 0.17; Q -0.597 ± 0.14; R -0.839 ± 0.11; S -0.798 ± 0.12; T -0.952 ± 0.16; V -0.93 ± 0.11; W -1.14 ± 0.24; Y -0.49 ± 0.19
E53: A -0.216 ± 0.062; C -0.38 ± 0.12; D 0.169 ± 0.13; F -0.064 ± 0.14; G -0.25 ± 0.062; H 0.061 ± 0.16; I -0.147 ± 0.16; K -0.21 ± 0.089; L -0.207 ± 0.061; M -0.286 ± 0.091; N 0.01 ± 0.14; P -0.359 ± 0.11; R -0.027 ± 0.053; T -0.235 ± 0.085; V -0.39 ± 0.086; W -0.186 ± 0.083
H54: A 0.064 ± 0.072; C 0.074 ± 0.16; E 0.189 ± 0.08; F -0.01 ± 0.13; G 0.027 ± 0.067; I 0.14 ± 0.14; K 0.117 ± 0.079; L -0.017 ± 0.053; N 0.137 ± 0.12; P 0.034 ± 0.079; Q 0.045 ± 0.08; R 0.108 ± 0.053; S 0.094 ± 0.063; T 0.235 ± 0.078; V 0.036 ± 0.061; W -0.157 ± 0.08; Y -0.061 ± 0.1
D55: E -0.456 ± 0.088; F -1.14 ± 0.23; G -0.636 ± 0.068; H 0.018 ± 0.088; I -0.921 ± 0.14; K -0.918 ± 0.12; L -0.933 ± 0.083; M -1.24 ± 0.22; N -0.606 ± 0.12; P -0.839 ± 0.11; Q -0.753 ± 0.12; R -0.747 ± 0.057; S -0.667 ± 0.063; T -0.651 ± 0.084; V -0.964 ± 0.1; W -0.815 ± 0.083; Y -0.814 ± 0.12
F56: A -0.316 ± 0.27; E -0.648 ± 0.42; K -0.757 ± 0.34; L -0.091 ± 0.17; R -0.361 ± 0.21; S -0.105 ± 0.22; T -0.114 ± 0.19; W -0.364 ± 0.26
Q57: A -0.077 ± 0.089; C -0.352 ± 0.12; D -0.264 ± 0.12; E -0.052 ± 0.092; F -0.346 ± 0.12; G 0.118 ± 0.081; H 0.056 ± 0.1; I -0.295 ± 0.13; K 0.006 ± 0.092; L -0.331 ± 0.061; N 0.062 ± 0.11; R 0.107 ± 0.067; S -0.145 ± 0.074; T -0.121 ± 0.067; V -0.156 ± 0.069; W -0.28 ± 0.12; Y -0.586 ± 0.17
M58: A -0.004 ± 0.14; C 0.043 ± 0.12; D -0.106 ± 0.37; E 0.061 ± 0.14; F 0.154 ± 0.11; G 0.223 ± 0.14; H -0.052 ± 0.18; K 0.043 ± 0.092; L 0.04 ± 0.059; N 0.132 ± 0.12; P -0.06 ± 0.094; Q 0.013 ± 0.12; R 0.066 ± 0.056; T 0.123 ± 0.077; V 0.007 ± 0.094; W -0.055 ± 0.1; Y -0.309 ± 0.16
L59: A 0.035 ± 0.12; C -0.033 ± 0.12; E -0.373 ± 0.17; F -0.616 ± 0.2; G 0.183 ± 0.14; I 0.099 ± 0.16; N -0.676 ± 0.44; P -0.235 ± 0.13; Q -0.069 ± 0.13; R -0.123 ± 0.085; S -0.312 ± 0.083; T -0.141 ± 0.11; V 0.036 ± 0.098; W -0.348 ± 0.096; Y -0.204 ± 0.19

Variants of: B2
Experiment: as above
Conditions: Homo sapiens

Abundance fitness: each site, then its substitutions
M1: C -0.25 ± 0.24; D -0.452 ± 0.3; F -0.004 ± 0.19; G -0.046 ± 0.25; H -0.462 ± 0.31; I 0.148 ± 0.092; K 0.112 ± 0.15; L -0.324 ± 0.14; N 0.277 ± 0.17; Q -0.689 ± 0.48; R -0.265 ± 0.22; S -0.23 ± 0.16; T -0.117 ± 0.12; V -0.015 ± 0.17; Y 0.226 ± 0.16
I2: A -0.978 ± 0.15; C -0.662 ± 0.11; E -0.54 ± 0.3; F -0.945 ± 0.13; G -0.802 ± 0.12; H -0.673 ± 0.11; K -0.82 ± 0.16; L -0.879 ± 0.096; M -0.761 ± 0.13; N -0.751 ± 0.11; Q -0.931 ± 0.17; R -0.734 ± 0.11; S -0.708 ± 0.09; T -0.686 ± 0.099; V -0.589 ± 0.1; W -0.856 ± 0.24; Y -0.882 ± 0.16
H3: A -0.086 ± 0.096; C -0.094 ± 0.13; D 0.235 ± 0.15; E 0.437 ± 0.14; F -0.392 ± 0.19; I -1.05 ± 0.28; K -0.56 ± 0.16; M -0.416 ± 0.14; N -0.266 ± 0.13; P -0.741 ± 0.16; Q 0.045 ± 0.12; R -0.376 ± 0.082; S -0.047 ± 0.09; T -0.282 ± 0.12; V -0.629 ± 0.12; W -0.245 ± 0.12; Y -0.16 ± 0.13
R4: A -0.535 ± 0.15; C -0.08 ± 0.11; D -0.479 ± 0.17; E 0.058 ± 0.14; G -0.481 ± 0.1; H -0.108 ± 0.14; K 0.145 ± 0.11; L -0.221 ± 0.09; M -0.136 ± 0.12; N -0.331 ± 0.15; P -0.788 ± 0.14; Q -0.233 ± 0.16; S -0.117 ± 0.087; T -0.047 ± 0.1; V -0.371 ± 0.11; W -0.263 ± 0.12; Y -0.102 ± 0.15
I5: A -0.778 ± 0.14; C -1.07 ± 0.18; D -0.999 ± 0.2; F -0.827 ± 0.16; G -0.933 ± 0.15; H -0.721 ± 0.13; L -0.497 ± 0.099; M -0.746 ± 0.21; N -1.01 ± 0.21; P -0.522 ± 0.14; Q -0.591 ± 0.2; R -0.81 ± 0.11; S -0.823 ± 0.12; T -0.914 ± 0.14; V -0.842 ± 0.14; W -0.767 ± 0.2; Y -1.02 ± 0.19
L6: A -0.79 ± 0.12; C -0.333 ± 0.11; D -0.907 ± 0.15; F -0.73 ± 0.12; H -0.76 ± 0.11; I -0.046 ± 0.087; K -0.918 ± 0.26; M -0.542 ± 0.17; N -0.804 ± 0.12; P -0.695 ± 0.11; Q -0.6 ± 0.17; R -0.805 ± 0.11; S -0.824 ± 0.096; T -0.75 ± 0.1; V -0.231 ± 0.089; W -1.07 ± 0.2; Y -0.735 ± 0.12
N7: A -0.068 ± 0.097; C -0.45 ± 0.11; D 0.013 ± 0.11; E -0.317 ± 0.17; F -0.568 ± 0.089; G -0.356 ± 0.12; H -0.26 ± 0.085; K -0.07 ± 0.14; L -0.438 ± 0.076; M -0.529 ± 0.12; P -0.884 ± 0.098; Q -0.101 ± 0.13; R -0.263 ± 0.089; S -0.112 ± 0.071; T -0.162 ± 0.077; V -0.724 ± 0.11; W -0.586 ± 0.19; Y -0.449 ± 0.09
H8: A -0.857 ± 0.14; C -0.647 ± 0.15; D -0.92 ± 0.16; E -0.69 ± 0.17; F -0.875 ± 0.18
